Data on twelve molecules can be found in publication PMC6823378, “Clathrin light chain A drives selective myosin VI recruitment to clathrin-coated pits under membrane tension” (Nature Communications, 2019).

Sequences and labels used below:
T1: myosin VI^998–1131 of the long isoform (myosin VI_(long)), cleaved from GST and purified (human, UniProt Q9UM54 998-1131)
T1 chain: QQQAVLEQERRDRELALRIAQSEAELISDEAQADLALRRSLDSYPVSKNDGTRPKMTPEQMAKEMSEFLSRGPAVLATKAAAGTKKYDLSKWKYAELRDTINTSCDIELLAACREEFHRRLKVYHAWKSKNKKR

T2: 5-carboxyfluorescein (5-FAM)-conjugated CLCa peptide 51–61 (human, UniProt P09496 51-61, also: 5-FAM conjugated, site not given here)
T2 construct: clathrin light chain A (CLCa), human, amino acids 51–61; source: synthetic peptide (GenScript)
T2 peptide (looked up): AFAILDGGAPG

T3: 5-carboxyfluorescein (5-FAM)-conjugated CLCa peptide 51–66 (human, UniProt P09496 51-66, also: 5-FAM conjugated, site not given here)
T3 construct: clathrin light chain A (CLCa), human, amino acids 51–66; source: synthetic peptide (GenScript)
T3 peptide (looked up): AFAILDGGAPGPQPHG

T4: His-Hip1R coiled-coil region (amino acids 346–655) (UniProt O75146 346-655)
T4 construct: also called His-Hip1R^346–655; Hip1R^346–655; source: bacterially purified (pRSF-duet)
T4 sequence (looked up): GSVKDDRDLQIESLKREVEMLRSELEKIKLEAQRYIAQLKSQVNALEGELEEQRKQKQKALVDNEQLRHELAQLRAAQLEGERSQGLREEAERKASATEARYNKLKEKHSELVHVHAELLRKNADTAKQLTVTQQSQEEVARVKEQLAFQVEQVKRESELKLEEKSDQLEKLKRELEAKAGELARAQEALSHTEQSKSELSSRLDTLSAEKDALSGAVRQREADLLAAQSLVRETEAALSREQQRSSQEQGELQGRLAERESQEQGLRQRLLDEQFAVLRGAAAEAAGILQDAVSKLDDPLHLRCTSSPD

T5: myosin VI^1069–1131 (human, UniProt Q9UM54 1069-1131)
T5 chain: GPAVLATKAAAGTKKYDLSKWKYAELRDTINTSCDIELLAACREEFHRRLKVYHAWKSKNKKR

B1: myosin VI^998–1131 of the long isoform (myosin VI_(long)), cleaved from GST and purified (domain or fragment, human, UniProt Q9UM54 998-1131, looked up)
chain: T1 chain
notes: source: E. coli Rosetta (DE3), GST fusion cleaved with PreScission Protease, purified (ion exchange)
B2: CLCa^46–61, recombinant, cleaved from GST (for the NMR structure) (peptide, UniProt P09496 46-61, looked up)
peptide: IENDEAFAILDGGAPG
notes: clathrin light chain A (CLCa), human, amino acids 46–61; 13C,15N-labelled in one of the two samples; source: E. coli BL21 (DE3), GST fusion cleaved with PreScission Protease in the presence of myosin VI, purified (SEC)
B3: CLCa full length, bacterially produced (ITC; reconstitution of cages) (natural protein, human, UniProt P09496 1-248, looked up)
chain: MAELDPFGAPAGAPGGPALGNGVAGAGEEDPAAAFLAQQESEIAGIENDEAFAILDGGAPGPQPHGEPPGGPDAVDGVMNGEYYQESNGPTDSYAAISQVDRLQSEPESIRKWREEQMERLEALDANSRKQEAEWKEKAIKELEEWYARQDEQLQKTKANNRVADEAFYKQPFADVIGYVTNINHPCYSLEQAAEEAFVNDIDESSPGTEWERVARLCDFNPKSSKQAKDVSRMRSVLISLKQAPLVH
notes: clathrin light chain A (CLCa), human; Cleavage from GST is told for the cage reconstitution; also called CLCa FL; CLCa WT; source: bacterially produced and cleaved from GST, purified
B4: myosin VI^1050–1131 of the long isoform, cleaved from GST and purified (domain or fragment, human, UniProt Q9UM54 1050-1131, looked up)
chain: RPKMTPEQMAKEMSEFLSRGPAVLATKAAAGTKKYDLSKWKYAELRDTINTSCDIELLAACREEFHRRLKVYHAWKSKNKKR
notes: 15N- or 13C,15N-labelled in some NMR samples; also called Myo6; source: E. coli Rosetta (DE3) or BL21 (DE3), GST fusion cleaved with PreScission Protease, purified (ion exchange or SEC)
B5: CLCa I54D full length (ITC) (natural protein, human, UniProt P09496 1-248, looked up)
chain: B3 chain with I54D
notes: clathrin light chain A (CLCa), human, I54D
B6: 5-carboxyfluorescein (5-FAM)-conjugated CLCa peptide 46–61 (peptide, UniProt P09496 46-61, looked up)
peptide: 5FAM-IENDEAFAILDGGAPG
notes: clathrin light chain A (CLCa), human, amino acids 46–61; also called CLCa^46–61; source: synthetic peptide (GenScript)
B7: GST-CLCa fragment of amino acids 47–97 (domain or fragment, human, UniProt P09496 47-97, looked up)
chain: ENDEAFAILDGGAPGPQPHGEPPGGPDAVDGVMNGEYYQESNGPTDSYAAI
notes: clathrin light chain A (CLCa), human, amino acids 47–97; also called CLCa 47–97; source: E. coli Rosetta (DE3), on glutathione-sepharose beads

Substitutions are numbered along the chain they refer to. In names and notes the source's numbering stands. Ends that are not written are not given here. * marks the point of attachment. 5FAM = O=C1OC2(c3ccc(O)cc3Oc3cc(O)ccc32)c2ccc(C(=O)*)cc21

In experiment [1] the target is myosin VI^1050–1131 of the long isoform, cleaved from GST and purified (UniProt Q9UM54). Briefly: GST pull-down, Coomassie, band quantitation. To be noted: parent: est. 23; read off a plot.
In experiment [2] the target is 5-carboxyfluorescein (5-FAM)-conjugated CLCa peptide 46–61 (human) (UniProt P09496). Nature of the experiment: fluorescence polarisation; 20–50 nM 5-FAM-conjugated CLCa peptide titrated with purified myosin VI fragment from ~150 µM, 22 °C, 384-well plate. (Fluorescence polarisation rises when a labelled molecule tumbles more slowly, as on binding a larger partner.)
Experiment [3] has as its target T1, myosin VI^998–1131 of the long isoform …. Briefly: FP.
Experiment [4] concerns the target T2, 5-carboxyfluorescein (5-FAM)-conjugated …. Briefly: fluorescence polarisation; 20–50 nM 5-FAM-conjugated CLCa peptide titrated with purified myosin VI fragment from ~150 µM, 22 °C, 384-well plate. Particulars: both partners purified.
Experiment [5] has as its target T3, 5-carboxyfluorescein (5-FAM)-conjugated …. Described as above. Particulars: both partners purified.
Experiment [6] has as its target B4. Briefly: NMR structure; complex of myosin VI^1050–1131 and CLCa^46–61, 221 intermolecular NOEs; 10 °C, 20 mM NaPO4 pH 6.5, 50 mM NaCl, 2 mM DTT. Particulars: both partners purified.
The target of experiment [7] is B4. Nature of the experiment: ITC; 380 µM CLCa WT or I54D titrated into 20 µM Hip1R^346–655 or myosin VI^1050–1131 in the cell; 20 mM Tris-HCl pH 8.0, 150 mM NaCl, 2.5% glycerol, 25 °C; one-set-of-sites model. To be noted: both partners purified.
The target of experiment [8] is T4, His-Hip1R coiled-coil region (amino …). The description is as above. Particulars: both partners purified.
Experiment [9] has as its target B3. The description is as above. To be noted: both partners purified.
The target in experiment [10] is B4. Briefly: fluorescence polarisation; 20–50 nM 5-FAM-conjugated CLCa peptide titrated with purified myosin VI fragment from ~150 µM, 22 °C, 384-well plate. To be noted: both partners purified.
Experiment [11] has as its target B1. The experiment is described as above. To be noted: both partners purified.
For experiment [12], the target named is T5, myosin VI^1069–1131. Briefly: FP.
Experiment [13] has as its target B1. Nature of the experiment: pull-down; GST-CLC proteins (1.5 μM) on glutathione sepharose beads incubated 1 h at 4 °C in JS buffer with cleaved and purified myosin VI fragments; SDS-PAGE, Coomassie. Particulars: both partners purified.

In general, Kd refers to the free concentration of one partner at which half of the binding sites on the other are occupied at equilibrium, for simple one-to-one binding. Low values mean tighter binding, high ones weaker binding. As usually defined, the stoichiometry N is the number of molecules, sites or subunits per partner or assembly.

Sequence of myosin VI^1050–1131 of the long isoform, cleaved from GST and purified (UniProt Q9UM54) (Q9UM54 whole entry, looked up, the tested form may be a part, canonical isoform): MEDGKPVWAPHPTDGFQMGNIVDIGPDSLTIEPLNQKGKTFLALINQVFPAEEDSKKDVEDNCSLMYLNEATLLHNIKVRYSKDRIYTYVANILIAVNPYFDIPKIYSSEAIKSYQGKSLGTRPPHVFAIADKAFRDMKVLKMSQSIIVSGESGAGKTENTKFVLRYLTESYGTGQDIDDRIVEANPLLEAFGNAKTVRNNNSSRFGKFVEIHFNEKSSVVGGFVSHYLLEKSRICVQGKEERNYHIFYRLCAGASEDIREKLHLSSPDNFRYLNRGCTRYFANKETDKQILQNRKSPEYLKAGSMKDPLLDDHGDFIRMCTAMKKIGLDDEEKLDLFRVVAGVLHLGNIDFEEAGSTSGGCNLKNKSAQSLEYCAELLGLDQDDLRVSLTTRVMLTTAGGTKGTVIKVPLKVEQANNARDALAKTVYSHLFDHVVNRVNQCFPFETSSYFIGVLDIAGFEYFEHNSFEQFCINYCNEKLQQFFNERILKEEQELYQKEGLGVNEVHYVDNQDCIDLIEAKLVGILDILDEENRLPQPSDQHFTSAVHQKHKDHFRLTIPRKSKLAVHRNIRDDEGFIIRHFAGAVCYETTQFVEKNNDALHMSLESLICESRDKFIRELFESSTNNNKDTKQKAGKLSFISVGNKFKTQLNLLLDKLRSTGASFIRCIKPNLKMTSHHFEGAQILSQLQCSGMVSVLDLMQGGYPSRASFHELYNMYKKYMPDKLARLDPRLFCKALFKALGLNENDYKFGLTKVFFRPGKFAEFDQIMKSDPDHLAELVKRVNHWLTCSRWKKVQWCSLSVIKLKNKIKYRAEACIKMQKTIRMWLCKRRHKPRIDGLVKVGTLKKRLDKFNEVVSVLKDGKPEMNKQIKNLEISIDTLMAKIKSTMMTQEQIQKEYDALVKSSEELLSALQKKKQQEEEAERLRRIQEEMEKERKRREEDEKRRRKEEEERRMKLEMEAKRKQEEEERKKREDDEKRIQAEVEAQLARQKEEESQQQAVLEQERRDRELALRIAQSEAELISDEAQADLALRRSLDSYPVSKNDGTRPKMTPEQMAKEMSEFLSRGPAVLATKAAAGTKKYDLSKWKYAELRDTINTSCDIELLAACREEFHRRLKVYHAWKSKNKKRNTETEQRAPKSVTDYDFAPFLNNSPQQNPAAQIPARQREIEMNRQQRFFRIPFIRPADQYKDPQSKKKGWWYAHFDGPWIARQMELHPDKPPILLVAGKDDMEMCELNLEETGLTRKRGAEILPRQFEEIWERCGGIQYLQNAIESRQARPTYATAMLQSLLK

On to GST-CLCa 46–61 WT I54D, for which the response in experiment [1] is 3 % of binding. The molecule “myosin VI Y1121A mutant used for FP analysis (domain or fragment)” showed a difference in binding affinity against the wild type in [2] of 2 log-fold. In experiment [2], “myosin VI^998–1131 of the short isoform (myosin VI_(short)), cleaved from GST and purified (domain or fragment)” yielded a Kd of 96 µM. With AFAILDGGAPG (also: 5-FAM conjugated, site not given here) [5-carboxyfluorescein (5-FAM)-conjugated CLCa peptide 51–61], in [3], binding was characterised by a dissociation constant (Kd) of 22.6 µM. As for B1, the “fold higher affinity of peptide 46–61 than of this peptide” value in experiment [4] and in experiment [5] was 10 fold throughout.

Consider B2, for which, in [6], the binding result is “binds”. AFAILDGGAPGPQPHG (also: 5-FAM conjugated, site not given here) [5-carboxyfluorescein (5-FAM)-conjugated CLCa peptide 51–66]: binding in experiment [3] was characterised by a dissociation constant (Kd) of 13.1 µM. This counts as double-digit micromolar. For the molecule B3, in experiment [7], the dH is -11.6 kcal/mol and the “stoichiometry N” value was found to be 0.79 sites. In addition, in experiment [8], the Kd was determined as 1370 nM, the dH was -9.7 kcal/mol and the “stoichiometry N” value worked out at 1.15 sites.

B4 registered a Kd in experiment [9] of 90 nM. This lies in the double-digit nanomolar range. With B5, in experiment [8], the Kd was 990 nM, the dH is -8.72 kcal/mol and the “stoichiometry N” value is 1.01 sites.

B6: the Kd amounted to 400 nM in [10], 930 nM in [11] and 22 µM in [12]. B7: the binding result in experiment [13] was “binds”.
